The text below walks through data of PMC9768791 (2022).

What all share (assay): activation reporter or marker
Assay [1] concerns the target T1, MAN2A2p.R877W peptide on HLA-C*04:01 (human).
T1 peptide: IWDYVNKELA

In assay [2] the target is T2, MED12Lp.T462K peptide on HLA-C*07:02 (human).
T2 peptide: SRVLHKLEV

Assay [3] concerns the target T3, STRADAp.M189V peptide on HLA-C*07:01 (human).
T3 peptide: KALDYIHHV

Assay [4] concerns the target T4, SDK1p.S1290L peptide on HLA-A*02:01 (human).
T4 peptide: SLTQILLTWT

Assay [5] has as its target T5, MTHFRp.R238H peptide on HLA-B*40:01 (human).
T5 peptide: FEADTFFHFV

Assay [6] deals with T6, ACEp.V535G peptide on HLA-B*57:01 (human).
T6 peptide: VSFGLQFQF

In assay [7] the target is T7, CDADC1p.R148Q peptide on HLA-A*24:02 (human).
T7 peptide: AGVNQISYW

Assay [8] has as its target T8, BRPF1p.L634F peptide on HLA-A*24:02 (human).
T8 peptide: EMQLTPFFI

Assay [9] addresses T9, PAPSS1p.Q144H peptide on HLA-C*07:02 (human).
T9 peptide: ARHIHEGASL

For assay [10], the target named is T10, WDFY3p.L512H peptide on HLA-A*11:01 (human).
T10 peptide: VMVNHLHKY

Assay [11] has as its target T11, STRADAp.M189V peptide on HLA-A*01:01 (human).
T11 peptide: ALDYIHHVGYV

In assay [12] the target is T12, RASA3p.A654V peptide on HLA-A*02:01 (human).
T12 peptide: FQVIQPERV

Assay [13] deals with T13, FCGRTp.A241T peptide on HLA-C*06:02 (human).
T13 peptide: LRFLRNGLT

The target of assay [14] is T14, PRCCp.V145L peptide on HLA-C*07:01 (human).
T14 peptide: KRKEPLKI

In assay [15] the target is T15, USP34p.S2706F peptide on HLA-C*07:02 (human).
T15 peptide: FRSTRFLHI

B1: TCR721 (TCR, V domains shown)
Valpha: AQKVTQAQTEISVVEKEDVTLDCVYETRDTTYYLFWYKQPPSGELVFLIRRNSFDEQNEISGRYSWNFQKSTSSFNFTITASQVVDSAVYFCALSEATGFGNEKLTFGTGTRLTIIP
Vbeta: DAGITQSPRHKVTETGTPVTLRCHQTENHRYMYWYRQDPGHGLRLIHYSYGVKDTDKGEVSDGYSVSRSKTEDFLLTLESATSSQTSVYFCAISDPRDSYEQYFGPGTRLTVT
On to B1, for which the binding result in [1] was “recognises”.

B2: TCR915 (TCR, V domains shown)
Valpha: AQKVTQAQTEISVVEKEDVTLDCVYETRDTTYYLFWYKQPPSGELVFLIRRNSFDEQNEISGRYSWNFQKSTSSFNFTITASQVVDSAVYFCALSDHNTDKLIFGTGTRLQVFP
Vbeta: NAGVTQTPKFRILKIGQSMTLQCTQDMNHNYMYWYRQDPGMGLKLIYYSVGAGITDKGEVPNGYNVSRSTTEDFPLRLELAAPSQTSVYFCASISDSYNEQFFGPGTRLTVL
For the molecule B2, the binding result in assay [2] is recorded as “recognises”.

B3: TCR827 (TCR, V domains shown)
Valpha: GQQVMQIPQYQHVQEGEDFTTYCNSSTTLSNIQWYKQRPGGHPVFLIQLVKSGEVKKQKRLTFQFGEAKKNSSLHITATQTTDVGTYFCAAPDAGGTSYGKLTFGQGTILTVHP
Vbeta: NAGVTQTPKFQVLKTGQSMTLQCAQDMNHEYMSWYRQDPGMGLRLIHYSVGAGITDQGEVPNGYNVSRSTTEDFPLRLLSAAPSQTSVYFCASSPLNPYNEQFFGPGTRLTVL
As for B3, the binding result in [3] is recorded as “recognises”.

B4: TCR1036 (TCR, V domains shown)
Valpha: RKEVEQDPGPFNVPEGATVAFNCTYSNSASQSFFWYRQDCRKEPKLLMSVYSSGNEDGRFTAQLNRASQYISLLIRDSKLSDSATYLCVVNMYNQGGKLIFGQGTELSVKP
Vbeta: NAGVTQTPKFQVLKTGQSMTLQCAQDMNHEYMSWYRQDPGMGLRLIHYSVGAGITDQGEVPNGYNVSRSTTEDFPLRLLSAAPSQTSVYFCASSYSGPNYEQYFGPGTRLTVT
B4: in assay [4], the binding result is on record as “recognises”.

B5: TCR814 (TCR, V domains shown)
Valpha: TQLLEQSPQFLSIQEGENLTVYCNSSSVFSSLQWYRQEPGEGPVLLVTVVTGGEVKKLKRLTFQFGDARKDSSLHITAAQPGDTGLYLCAGLLGDSGAGSYQLTFGKGTKLSVIP
Vbeta: DAGITQSPRHKVTETGTPVTLRCHQTENHRYMYWYRQDPGHGLRLIHYSYGVKDTDKGEVSDGYSVSRSKTEDFLLTLESATSSQTSVYFCAISESWMSSYNEQFFGPGTRLTVL
For the molecule B5, the binding result in assay [5] is recorded as “recognises”.

B6: TCR901 (TCR, V domains shown)
Valpha: QKEVEQDPGPLSVPEGAIVSLNCTYSNSAFQYFMWYRQYSRKGPELLMYTYSSGNKEDGRFTAQVDKSSKYISLFIRDSQPSDSATYLCAMTRGGGGNKLTFGTGTQLKVEL
Vbeta: NAGVTQTPKFRVLKTGQSMTLLCAQDMNHEYMYWYRQDPGMGLRLIHYSVGEGTTAKGEVPDGYNVSRLKKQNFLLGLESAAPSQTSVYFCASSYGGPEQFFGPGTRLTVL
B6: the binding result in assay [6] was “recognises”.

B7: TCR1057 (TCR, V domains shown)
Valpha: GENVEQHPSTLSVQEGDSAVIKCTYSDSASNYFPWYKQELGKRPQLIIDIRSNVGEKKDQRIAVTLNKTAKHFSLHITETQPEDSAVYFCAASRGPAGGTSYGKLTFGQGTILTVHP
Vbeta: DTEVTQTPKHLVMGMTNKKSLKCEQHMGHRAMYWYKQKAKKPPELMFVYSYEKLSINESVPSRFSPECPNSSLLNLHLHALQPEDSALYLCASSQDAWWLSQPQHFGDGTRLSIL
In the case of B7, the binding result in assay [7] is listed as “recognises”.

B8: TCR955 (TCR, V domains shown)
Valpha: AQTVTQSQPEMSVQEAETVTLSCTYDTSESDYYLFWYKQPPSRQMILVIRQEAYKQQNATENRFSVNFQKAAKSFSLKISDSQLGDAAMYFCAYRRRNSGYALNFGKGTSLLVTP
Vbeta: DAGVTQSPTHLIKTRGQQVTLRCSPKSGHDTVSWYQQALGQGPQFIFQYYEEEERQRGNFPDRFSGHQFPNYSSELNVNALLLGDSALYLCASSLRVWSSYEQYFGPGTRLTVT
B8: the binding result in [8] is “recognises”.

B9: TCR952 (TCR, V domains shown)
Valpha: SQQGEEDPQALSIQEGENATMNCSYKTSINNLQWYRQNSGRGLVHLILIRSNEREKHSGRLRVTLDTSKKSSSLLITASRAADTASYFCATDEVGDMRFGAGTRLTVKP
Vbeta: EPEVTQTPSHQVTQMGQEVILRCVPISNHLYFYWYRQILGQKVEFLVSFYNNEISEKSEIFDDQFSVERPDGSNFTLKIRSTKLEDSAMYFCAISGSLYNEQFFGPGTRLTVL
Turning to B9, in [9], the binding result is recorded as “recognises”.

B10: TCR720 (TCR, V domains shown)
Valpha: LAKTTQPISMDSYEGQEVNITCSHNNIATNDYITWYQQFPSQGPRFIIQGYKTKVTNEVASLFIPADRKSSTLSLPRVSLSDTAVYYCLVIEAGNNRKLIWGLGTSLAVNP
Vbeta: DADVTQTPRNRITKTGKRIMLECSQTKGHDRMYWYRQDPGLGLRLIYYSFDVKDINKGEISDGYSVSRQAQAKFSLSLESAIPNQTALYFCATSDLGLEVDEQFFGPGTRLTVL
With B10, the binding result in assay [10] is recorded as “recognises”.

B11: TCR829 (TCR, V domains shown)
Valpha: QKEVEQDPGPLSVPEGAIVSLNCTYSNSAFQYFMWYRQYSRKGPELLMYTYSSGNKEDGRFTAQVDKSSKYISLFIRDSQPSDSATYLCAMSPTYSGAGSYQLTFGKGTKLSVIP
Vbeta: GAVVSQHPSWVICKSGTSVKIECRSLDFQATTMFWYRQFPKQSLMLMATSNEGSKATYEQGVEKDKFLINHASLTLSTLTVTSAHPEDSSFYICSASLLGEGYEQYFGPGTRLTVT
Turning to B11, in [11], the binding result is listed as “recognises”.

B12: TCR1312 (TCR, V domains shown)
Valpha: QKEVEQNSGPLSVPEGAIASLNCTYSDRGSQSFFWYRQYSGKSPELIMFIYSNGDKEDGRFTAQLNKASQYVSLLIRDSQPSDSATYLCAVNRAGGSYIPTFGRGTSLIVHP
Vbeta: DAGVIQSPRHEVTEMGQEVTLRCKPISGHDYLFWYRQTMMRGLELLIYFNNNVPIDDSGMPEDRFSAKMPNASFSTLKIQPSEPRDSAVYFCASSQGQGVLGMKKLFFGSGTQLSVL
With B12, the binding result in assay [12] is reported as “recognises”.

B13: TCR1059 (TCR, V domains shown)
Valpha: SQQGEEDPQALSIQEGENATMNCSYKTSINNLQWYRQNSGRGLVHLILIRSNEREKHSGRLRVTLDTSKKSSSLLITASRAADTASYFCATDEGNFVFGPGTRLSVLP
Vbeta: NAGVTQTPKFQVLKTGQSMTLQCAQDMNHEYMSWYRQDPGMGLRLIHYSVGAGITDQGEVPNGYNVSRSTTEDFPLRLLSAAPSQTSVYFCASSPGQRETQYFGPGTRLLVL
With B13, the binding result in [13] is reported as “recognises”.

B14: TCR775 (TCR, V domains shown)
Valpha: GQNIDQPTEMTATEGAIVQINCTYQTSGFNGLFWYQQHAGEAPTFLSYNVLDGLEEKGRFSSFLSRSKGYSYLLLKELQMKDSASYLCAAHSGGYQKVTFGTGTKLQVIP
Vbeta: EPEVTQTPSHQVTQMGQEVILRCVPISNHLYFYWYRQILGQKVEFLVSFYNNEISEKSEIFDDQFSVERPDGSNFTLKIRSTKLEDSAMYFCASSEDEQEYSYEQYFGPGTRLTVT
In the case of B14, in assay [14], the binding result is on record as “recognises”.

B15: TCR903 (TCR, V domains shown)
Valpha: AQKVTQAQTEISVVEKEDVTLDCVYETRDTTYYLFWYKQPPSGELVFLIRRNSFDEQNEISGRYSWNFQKSTSSFNFTITASQVVDSAVYFCALSEETDRGSTLGRLYFGRGTQLTVWP
Vbeta: DTAVSQTPKYLVTQMGNDKSIKCEQNLGHDTMYWYKQDSKKFLKIMFSYNNKELIINETVPNRFSPKSPDKAHLNLHINSLELGDSAVYFCASSQDGGFEQFFGPGTRLTVL
Consider B15, for which the binding result in assay [15] is listed as “recognises”.
